The experiment concerns ABP1. Kind of experiment: DHFR-PCA on solid medium, bait ABP1 (Fig. 1B). To be noted: bait ABP1, label = prey; 2-4 replicates. The format is cell-based, Saccharomyces cerevisiae. From the text: Supplement 41467_2021_21873_MOESM8_ESM.xlsx, sheet "Fig1B" | column: medsize; medrep; Ratio; Score

7 molecules from article PMC7954794, “Protein context shapes the specificity of SH3 domain-mediated interactions in vivo” (Nature Communications, 2021) can be followed below.

B1: YJL155C (protein, UniProt P32604 1-452, looked up)
Fructose-2,6-bisphosphatase: MGYSTISNDNDIKVCVIMVGLPARGKSFISQKIIRYLSWLSIKAKCFNVGNYRRDVSGNVPMDAEFFNFENTDNFKLRELAAQNAIKDIVNFFTKEDGSVAVFDATNSTRKRRKWLKDICEKNNIQPMFLESWSNDHELIINNAKDIGSTSPDYENSEPHVAEADFLERIRQYERFYEPLDPQKDKDMTFIKLVNIIEEVVINKIRTYLESRIVFYVMNIRPKPKYIWLSRHGESIYNVEKKIGGDSSLSERGFQYAKKLEQLVKESAGEINLTVWTSTLKRTQQTANYLPYKKLQWKALDELDAGVCDGMTYEEIEKEYPEDFKARDNDKYEYRYRGGESYRDVVIRLEPVIMELERQENVLIITHQAVLRCIYAYFMNVPQEESPWMSIPLHTLIKLEPRAYGTKVTKIKANIPAVSTYKEKGTSQVGELSQSSTKLHQLLNDSPLEDKF
B1: the “medrep (log2 median colony size normalized to plate background, PCA score)” value is on record as 1.596.

B2: YNL255C (protein, UniProt P53849 1-153, looked up)
Zinc finger protein GIS2: MSQKACYVCGKIGHLAEDCDSERLCYNCNKPGHVQTDCTMPRTVEFKQCYNCGETGHVRSECTVQRCFNCNQTGHISRECPEPKKTSRFSKVSCYKCGGPNHMAKDCMKEDGISGLKCYTCGQAGHMSRDCQNDRLCYNCNETGHISKDCPKA
As to B2, the “medrep (log2 median colony size normalized to plate background, PCA score)” value is 2.801.

B3: YNL098C (protein, UniProt P01120 2-319, looked up)
Ras-like protein 2: PLNKSNIREYKLVVVGGGGVGKSALTIQLTQSHFVDEYDPTIEDSYRKQVVIDDEVSILDILDTAGQEEYSAMREQYMRNGEGFLLVYSITSKSSLDELMTYYQQILRVKDTDYVPIVVVGNKSDLENEKQVSYQDGLNMAKQMNAPFLETSAKQAINVEEAFYTLARLVRDEGGKYNKTLTENDNSKQTSQDTKGSGANSVPRNSGGHRKMSNAANGKNVNSSTTVVNARNASIESKTGLAGNQATNGKTQTDRTNIDNSTGQAGQANAQSANTVNNRVNNNSKAGQVSNAKQARKQQAAPGGNTSEASKSGSGGCC
Regarding B3, the “medrep (log2 median colony size normalized to plate background, PCA score)” value was 3.322.

B4: YJL128C (protein, UniProt P08018 1-668, looked up)
MAP kinase kinase PBS2: MEDKFANLSLHEKTGKSSIQLNEQTGSDNGSAVKRTSSTSSHYNNINADLHARVKAFQEQRALKRSASVGSNQSEQDKGSSQSPKHIQQIVNKPLPPLPVAGSSKVSQRMSSQVVQASSKSTLKNVLDNQETQNITDVNINIDTTKITATTIGVNTGLPATDITPSVSNTASATHKAQLLNPNRRAPRRPLSTQHPTRPNVAPHKAPAIINTPKQSLSARRGLKLPPGGMSLKMPTKTAQQPQQFAPSPSNKKHIETLSNSKVVEGKRSNPGSLINGVQSTSTSSSTEGPHDTVGTTPRTGNSNNSSNSGSSGGGGLFANFSKYVDIKSGSLNFAGKLSLSSKGIDFSNGSSSRITLDELEFLDELGHGNYGNVSKVLHKPTNVIMATKEVRLELDEAKFRQILMELEVLHKCNSPYIVDFYGAFFIEGAVYMCMEYMDGGSLDKIYDESSEIGGIDEPQLAFIANAVIHGLKELKEQHNIIHRDVKPTNILCSANQGTVKLCDFGVSGNLVASLAKTNIGCQSYMAPERIKSLNPDRATYTVQSDIWSLGLSILEMALGRYPYPPETYDNIFSQLSAIVDGPPPRLPSDKFSSDAQDFVSLCLQKIPERRPTYAALTEHPWLVKYRNQDVHMSEYITERLERRNKILRERGENGLSKNVPALHMGGL
As for B4, the “medrep (log2 median colony size normalized to plate background, PCA score)” value is recorded as 2.693.

B5: YNL020C (protein, UniProt P53974 1-638, looked up)
Actin-regulating kinase 1: MNQPQIGTYNVGTQLTVGSHQVEIIKYLTSGGFAQVYSALINPPDPHSNSSVACLKRVIVPDKPSLNTLRAEVDAMRLLKNNRYVVSYIDSHAAKAMLHNGSYEVFVLMEYCERGGLIDFMNTRLQNRLHEFEILQIMSQVTQGVAAMHALQPPLIHRDIKIENVLISANNEYKLCDFGSVCGIIRPPRNSQELSYVQQDILKNTTAQYRSPEMIDTFRGLPIDEKSDIWALGIFLYKLCYYTTPFEKGGDLAILSGKFEFPLYPNYSEQLKGLIRDILVQDPRHRPNVYQLLKRISIMQNVPCPINDIQVVQAPSSHLNLTELHQLSATQNILSLNSPTTMENTMPNATFQISMADNTTTAQMHPNRKPSQIAYDASFSNSAKGSQPLFDKSQNMYHALDPPLVEPLASSVSNNDNELKANSATKLKQAIVSEAHTFRQNNSIDFPLQNIIPQYEDSSSSSDESYSGDVDELKKTRSLGSYSTRGNIKKNQSVKESLTSSSLPGTSFTPTSTKVNLKHENSPFKSTFVNTIDNSKDDLNKPSYEDLDVSKQNLKNSIQQRMIDKLNSSEESFNARKMSKVKLHEKGEIDKPTMLKSSGPISKDKKTKPTPPPKPSHLKPKPPPKPLLLAGRKLSLDK
As for B5, the “medrep (log2 median colony size normalized to plate background, PCA score)” value is reported as 4.233.

B6: YLR330W (protein, UniProt Q12114 1-671, looked up)
Chitin biosynthesis protein …: MSSVDVLLTVGKLDASLALLTTQDHHVIEFPTVLLPENVKAGSIIKMQVSQNLEEEKKQRNHFKSIQAKILEKYGTHKPESPVLKIVNVTQTSCVLAWDPLKLGSAKLKSLILYRKGIRSMVIPNPFKVTTTKISGLSVDTPYEFQLKLITTSGTLWSEKVILRTHKMTDMSGITVCLGPLDPLKEISDLQISQCLSHIGARPLQRHVAIDTTHFVCNDLDNEESNEELIRAKHNNIPIVRPEWVRACEVEKRIVGVRGFYLDADQSILKNYTFPPVNEEELSYSKENEPVAEVADENKMPEDTTDVEQVASPNDNESNPSEAKEQGEKSGHETAPVSPVEDPLHASTALENETTIETVNPSVRSLKSEPVGTPNIEENKADSSAEAVVEEPNEAVAESSPNEEATGQKSEDTDTHSNEQADNGFVQTEEVAENNITTESAGENNEPADDAAMEFGRPEAEIETPEVNESIEDANEPAEDSNEPVEDSNKPVKDSNKPVEDSNKPVEDSNKPVEDSNKPVEDANEPVEDTSEPVEDAGEPVQETNEFTTDIASPRHQEEDIELEAEPKDATESVAVEPSNEDVKPEEKGSEAEDDINNVSKEAASGESTTHQKTEASASLESSAVTEEQETTEAEVNTDDVLSTKEAKKNTGNSNSNKKKNKKNKKKGKKK
In the case of B6, the “medrep (log2 median colony size normalized to plate background, PCA score)” value was 3.386.

B7: YMR216C (protein, UniProt Q03656 1-742, looked up)
Serine/threonine-protein …: MGSSINYPGFVTKSAHLADTSTDASISCEEATSSQEAKKNFFQRDYNMMKKAPAPTKSKLSLALQTSKSSSSANGTVQEDTSSKTEDFSTKSIKKKPDSGVESHVSIQSDSGPQSDSDLDSDSSISSCDERNEESLKDYRPGGYHPAFKGEPYKDARYILVRKLGWGHFSTVWLAKDMVNNTHVAMKIVRGDKVYTEAAEDEIKLLQRVNDADNTKEDSMGANHILKLLDHFNHKGPNGVHVVMVFEVLGENLLALIKKYEHRGIPLIYVKQISKQLLLGLDYMHRRCGIIHTDIKPENVLMEIGDVEGIVQMVEALDKQKREAKRLQRHVSRSSDITANDSSDEKWAECQTSMPCGSSSNSKSRSIEKDLSKRCFRRPRRHTIITGSQPLPSPISSSNFFEMRAHFCGSSHNSFSSVSGNRNIPSSINNNSINNGIGIKNSNNSFLNSVPHSVTRMFINEDSNDNNNNDNSKNKNNNNNNSNNNNNEDIMNTPLHEEQLADSLSTFDISNISQSSDTNGPYISNTMDSNSNVSTDINSPENLIQIKIADLGNACWYDEHYTNSIQTREYRSPEVLLGAPWGCGADIWSTACLIFELITGDFLFEPDEGHSYTKDDDHIAQIIELLGELPSYLLRNGKYTRTFFNSRGLLRNISKLKFWPLEDVLTEKYKFSKDEAKEISDFLSPMLQLDPRKRADAGGLVNHPWLKDTLGMEEIRVPDRELYGSGSDIPGWFEEVRDHKRH
For the molecule B7, the “medrep (log2 median colony size normalized to plate background, PCA score)” value worked out at 1.64.
